Data published in the DeepSol protein solubility set.

Assay: soluble on expression in E. coli; label from the status in PepcDB or PDB records

Row | Sequence | soluble on expression in E. coli
1 | VREVCSEQAETGPCRAMISRWYFDVTEGKCAPFFYGGCGGNRNNFDTEEYCMAVCGSA | soluble
2 | MNSFIEGAHQPLLSVWRRAFLFSGALLLTACSHNASPPPFTASGFAGDHGAVRIWRKDTNDEVHLLSVFSPWHSGSTTTSEYRWQGDTLSLIELNIYSKPPEHIRARFDAHGELSFMQREVGGQKQQLSNDQIALYRYRAEQIRQTSDALRLGRVILRQGRWHADHTVTTCEGETLKPDLDSWAISHIERRQNHSSVEVSVAWLEAPEGSQLLLVANSDFCHWQPQAKSF | not soluble
3 | MGHHHHHHSHMANSMANSLSSTQTDYRLSDDLLGPVLAILDAYIDPYLAKGLVSAGCVNKLAIEGKRLQLGLVYPYPCMTQYRDTVMALTNKLAVLDAIDEVECEIDFQPKVYSAIASIAPIANVKQVIAVASGKGGVGKSTTAVNLALALAAEGAQVGILDADIYGPSVPLMLGIPNFRPVSPDGKHMTAASAYGIAAQSIGFMLSGDEAAVWRGPMAAGALAQLLNETQWPELDYLVVDMPPGTGDIQLTLSQKVPVSGAVIVTTPQDIALADAKKGITMFQKVNIPVLGIVENMSFHLCPECGHKEHPFGTHGGSKMAERYQVPLLGALPLHINIREAMDVGAPTVVAEPDSEVAALYREIARKVGAELALKQSQKTVSISVSDDE | not soluble
4 | GMMTHYSDNTLKVAHQGFEFFTQGLATGEWQKFLDMLTEDFTFWFPMGEFHGLNVGKERAKEFFTYVSESFHTGIQISSLDRVTSNETTVVFEFRDEGLFLGKPYKNRVAVSFDVRGDKICSYREYFGSDGKSN | soluble
5 | MGPAPRVLELFYDVLSPYSWLGFEVLCRYQHLWNIKLKLRPALLAGIMKDSGNQPPAMVPHKGQYILKEIPLLKQLFQVPMSVPKDFFGEHVKKGTVNAMRFLTAVSMEQPEMLEKVSRELWMRIWSRDEDITESQNILSAAEKAGMATAQAQHLLNKISTELVKSKLRETTGAACKYGAFGLPTTVAHVDGKTYMLFGSDRMELLAYLLGEKWMGPVPPTLNARL | soluble
6 | SSYCKQEGKDCIIFVTKEDHEAPSNAELVEDDPNDPYEDHGLILPNGDINWNCPCLGGMASGPCGQQFKDAFSCFHYSKEEIKGSDCVENFRGMQECMQKYPELYPQEDDNDSAPSGGANTAPTDSLPASSTDSTAAAATENPATS | soluble
7 | MGSDKIHHHHHHMSVMFDPQAAIYPFPPKPTPLNDDEKQFYREKIKRLLKERNAVMVAHYYTDPEIQQLAEETGGCISDSLEMARFGTKHAASTLLVAGVRFMGETAKILSPEKTILMPTLAAECSLDLGCPIDEFSAFCDAHPDRTVVVYANTSAAVKARADWVVTSSIAVELIEHLDSLGEKIIWAPDRHLGNYVQKQTGADVLCWQGACIVHDEFKTQALTRLKKIYPDAALLVHPESPQSIVEMADAVGSTSQLIKAAKTLPHRQLIVATDRGIFYKMQQAVPEKELLEAPTAGEGATCRSCAHCPWMAMNGLKAIAEGLEQGGAAHEIQVDAALREGALLPLNRMLDFAATLRA | not soluble
8 | IPRFGVKTEQEDVLAKELEDVNKWGLHVFRIAELSGNRPLTVIMHTIFQERDLLKTFKIPVDTLITYLMTLEDHYHADVAYHNNIHAADVVQSTHVLLSTPALEAVFTDLEILAAIFASAIHDVDHPGVSNQFLINTNSELALMYNDSSVLENHHLAVGFKLLQEENCDIFQNLTKKQRQSLRKMVIDIVLATDMSKHMNLLADLKTMVETKKVTSSGVLLLDNYSDRIQVLQNMVHCADLSNPTKPLQLYRQWTDRIMEEFFRQGDRERERGMEISPMCDKHNASVEKSQVGFIDYIVHPLWETWADLVHPDAQDILDTLEDNREWYQSTIPQSPSPAPDDPEEGRQGQTEKFQFELTLE | soluble
9 | MEKKIGFIGCGNMGKAILGGLIASGQVLPGQIWVYTPSPDKVAALHDQYGINAAQSAQEVAQVADIVFGAVKPGIMVKVLSEISSSLNKDSLVVSIAAGVTLDQLARALGHDRKIIRAMPNTPSLVNAGMTSVTPNALVTPEDTADVLNIFRCFGGAEVIAEPMIHPVVGVSGSSPAYVFMFIEAMADAAVLGGMPRAQAYKFAAQAVMGSAKMVLETGKHPGELKDMVCSPGGTTIEAVRVLEERGFRAAVIEAMTKCMEKSEALSKSLEHHHHHH | soluble
10 | GAMEAIYAYEAQGDDEISIDPGDIITVIRGDDGSGWTYGECDGLKGLFPTSYCK | soluble
